For one substance, dilution positive in immunofluorescence (reciprocal dilution) results are on record in US20100272753A1.

The assay addresses native circumsporozoite protein (CSP) on intact P. falciparum sporozoites (Plasmodium falciparum) (UniProt Q7K740). Nature of the assay: indirect immunofluorescence on intact P. falciparum sporozoites.
Chain of UniProt Q7K740 (Q7K740 19-374): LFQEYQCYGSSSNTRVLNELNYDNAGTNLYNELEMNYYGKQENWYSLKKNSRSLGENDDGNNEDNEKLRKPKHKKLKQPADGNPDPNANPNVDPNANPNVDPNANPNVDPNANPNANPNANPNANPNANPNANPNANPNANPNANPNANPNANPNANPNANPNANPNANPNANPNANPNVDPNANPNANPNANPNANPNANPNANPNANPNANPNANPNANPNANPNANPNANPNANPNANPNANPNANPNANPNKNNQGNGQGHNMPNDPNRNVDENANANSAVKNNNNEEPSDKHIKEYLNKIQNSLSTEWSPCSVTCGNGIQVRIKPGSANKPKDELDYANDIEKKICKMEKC

Consider “anti-P. falciparum NANP monoclonal antibody 2A10”, for which the dilution positive in immunofluorescence (reciprocal dilution) worked out at 16000.
